This assay addresses T1, CD20 (Acro Biosystems) (UniProt P11836 1-297).
T1 sequence (looked up): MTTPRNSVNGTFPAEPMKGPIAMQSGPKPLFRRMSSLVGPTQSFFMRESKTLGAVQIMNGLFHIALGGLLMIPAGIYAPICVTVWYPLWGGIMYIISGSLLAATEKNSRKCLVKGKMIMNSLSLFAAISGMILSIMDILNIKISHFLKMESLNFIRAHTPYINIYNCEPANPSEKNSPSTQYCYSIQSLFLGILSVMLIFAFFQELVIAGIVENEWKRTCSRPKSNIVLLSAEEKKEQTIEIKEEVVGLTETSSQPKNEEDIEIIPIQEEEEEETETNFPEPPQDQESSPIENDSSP

B1: rituximab (antibody, human IgG1, kappa, V domains shown)
VH: QVQLQQPGAELVKPGASVKMSCKASGYTFTSYNMHWVKQTPGRGLEWIGAIYPGNGDTSYNQKFKGKATLTADKSSSTAYMQLSSLTSEDSAVYYCARSTYYGGDWYFNVWGAGTTVTVSA
VL: QIVLSQSPAILSASPGEKVTMTCRASSSVSYIHWFQQKPGSSPKPWIYATSNLASGVPVRFSGSGSGTSYSLTISRVEAEDAATYYCQQWTSNPPTFGGGTKLEIKR
A word on the Kd: it is the concentration at which binding is half-saturated. The low end stands for higher affinity, the high end for lower affinity. Broadly, the koff is the rate constant with which the complex falls apart. A low value points to slow dissociation. As usually defined, the kon is a measure of how fast the partners come together. With B1, the Kd was less than 1 pM, the koff was less than 1e-07 s⁻¹ and the kon is 140000 M⁻¹ s⁻¹.

The values above are taken from patent US20230173091A1 (published 2023).
